Measurements published in US20230390369A1.

Target: human PD-L1 on antigen-presenting cells of the Promega J1250 assay (human) (UniProt Q9NZQ7)
Assay: cell-based or functional assay

With atezolizumab (antibody) the Luminescence (RLU) at 0.1 µg/mL was 241000 RLU and the Luminescence (RLU) at 20 µg/mL was 1.47e+06 RLU.
